Laboratory results published in paper PMC3912074 (FEBS letters, 2013).

Tests used:
[1] = target: T1, PG1653 (Porphyromonas gingivalis, UniProt Q7MU91); test: DTNB-coupled thioesterase assay, […] nm; format: biochemical; settings: pH 7.5, 25 °C, 50 mM HEPES, 0.15 M KCl, 1 mM DTNB
T1 sequence (Q7MU91 1-407): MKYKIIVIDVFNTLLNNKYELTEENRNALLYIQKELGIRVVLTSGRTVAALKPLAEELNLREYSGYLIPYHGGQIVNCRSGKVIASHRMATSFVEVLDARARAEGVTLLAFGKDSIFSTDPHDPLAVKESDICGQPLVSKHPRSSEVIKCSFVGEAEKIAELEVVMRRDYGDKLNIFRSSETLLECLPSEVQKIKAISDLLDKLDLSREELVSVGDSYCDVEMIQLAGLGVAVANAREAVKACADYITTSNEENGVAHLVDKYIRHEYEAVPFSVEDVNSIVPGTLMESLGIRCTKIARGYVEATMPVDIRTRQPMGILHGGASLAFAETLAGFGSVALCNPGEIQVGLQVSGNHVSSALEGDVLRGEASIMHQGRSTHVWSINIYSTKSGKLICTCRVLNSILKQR

[2] = target: T2, BF1314 (Bacteroides fragilis, UniProt Q5LFS7); test: DTNB-coupled thioesterase assay, […] nm; format: biochemical; settings: pH 7.5, 25 °C, 50 mM HEPES, 0.15 M KCl, 1 mM DTNB
T2 sequence (Q5LFS7 1-410): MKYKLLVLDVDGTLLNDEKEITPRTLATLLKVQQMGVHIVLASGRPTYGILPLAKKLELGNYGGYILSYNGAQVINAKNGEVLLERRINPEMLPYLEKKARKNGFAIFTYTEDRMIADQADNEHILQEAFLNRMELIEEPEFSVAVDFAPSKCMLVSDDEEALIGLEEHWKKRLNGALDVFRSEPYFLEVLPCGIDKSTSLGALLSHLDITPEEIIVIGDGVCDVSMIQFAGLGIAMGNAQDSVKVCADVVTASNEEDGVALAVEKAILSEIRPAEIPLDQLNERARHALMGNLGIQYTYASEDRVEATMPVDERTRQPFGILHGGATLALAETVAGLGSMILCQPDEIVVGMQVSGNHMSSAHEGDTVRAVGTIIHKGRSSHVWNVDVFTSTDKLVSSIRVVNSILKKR

[3] = target: T3, BVU2420 (Phocaeicola vulgatus, UniProt A6L315); test: DTNB-coupled thioesterase assay, […] nm; format: biochemical; settings: pH 7.5, 25 °C, 50 mM HEPES, 0.15 M KCl, 1 mM DTNB
T3 sequence (A6L315 1-135): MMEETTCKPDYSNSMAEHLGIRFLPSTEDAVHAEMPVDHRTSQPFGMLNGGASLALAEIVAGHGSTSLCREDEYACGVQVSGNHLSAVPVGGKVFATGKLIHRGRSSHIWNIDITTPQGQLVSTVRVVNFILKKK

[4] = substrate: CC(C)(COP(=O)(O)OP(=O)(O)OC[C@H]1O[C@@H](n2cnc3c(N)ncnc32)[C@H](O)[C@@H]1OP(=O)(O)O)[C@@H](O)C(=O)NCCC(=O)NCCSC(=O)Cc1cccc(O)c1; test: purified protein; format: biochemical, Bacteroides fragilis; settings: pH 7.5, 25 °C, 50 mM HEPES, 0.15 M KCl, 1 mM DTNB
[5] = substrate: CC(C)(COP(=O)(O)OP(=O)(O)OC[C@H]1O[C@@H](n2cnc3c(N)ncnc32)[C@H](O)[C@@H]1OP(=O)(O)O)[C@@H](O)C(=O)NCCC(=O)NCCSC(=O)c1ccc(O)cc1; test: purified protein; format: biochemical, Bacteroides fragilis; settings: pH 7.5, 25 °C, 50 mM HEPES, 0.15 M KCl, 1 mM DTNB
[6] = substrate: NC(=O)OP(=O)(O)O; test: purified protein; format: biochemical, Bacteroides fragilis; settings: pH 7.5, 25 °C, 1 mM MgCl2 (table; methods say 2 mM)
[7] = substrate: CC(C)(COP(=O)(O)OP(=O)(O)OC[C@H]1O[C@@H](n2cnc3c(N)ncnc32)[C@H](O)[C@@H]1OP(=O)(O)O)[C@@H](O)C(=O)NCCC(=O)NCCSC(=O)c1ccccc1; test: purified protein; format: biochemical, Bacteroides fragilis; settings: pH 7.5, 25 °C, 50 mM HEPES, 0.15 M KCl, 1 mM DTNB
[8] = substrate: CC(C)(COP(=O)(O)OP(=O)(O)OC[C@H]1O[C@@H](n2cnc3c(N)ncnc32)[C@H](O)[C@@H]1OP(=O)(O)O)[C@@H](O)C(=O)NCCC(=O)NCCSC(=O)c1cc(O)c2ccccc2c1O; test: purified protein; format: biochemical, Bacteroides fragilis; settings: pH 7.5, 25 °C, 50 mM HEPES, 0.15 M KCl, 1 mM DTNB
[9] = substrate: NC(=O)OP(=O)(O)O; test: purified protein; settings: pH 7.5, 25 °C, 1 mM MgCl2 (table; methods say 2 mM)
[10] = substrate: O=P(O)(O)NP(=O)(O)O; test: purified protein; settings: pH 7.5, 25 °C, 1 mM MgCl2 (table; methods say 2 mM)
[11] = substrate: O=P(O)(O)OC[C@H](O)CO; test: purified protein; settings: pH 7.5, 25 °C, 1 mM MgCl2 (table; methods say 2 mM)
[12] = substrate: CC(=O)OP(=O)(O)O; test: purified protein; settings: pH 7.5, 25 °C, 1 mM MgCl2 (table; methods say 2 mM)
[13] = substrate: CC(C)(COP(=O)(O)OP(=O)(O)OC[C@H]1O[C@@H](n2cnc3c(N)ncnc32)[C@H](O)[C@@H]1OP(=O)(O)O)[C@@H](O)C(=O)NCCC(=O)NCCSC(=O)Cc1cccc(O)c1; test: purified protein; format: biochemical, Porphyromonas gingivalis; settings: pH 7.5, 25 °C, 50 mM HEPES, 0.15 M KCl, 1 mM DTNB
[14] = substrate: CC(C)(COP(=O)(O)OP(=O)(O)OC[C@H]1O[C@@H](n2cnc3c(N)ncnc32)[C@H](O)[C@@H]1OP(=O)(O)O)[C@@H](O)C(=O)NCCC(=O)NCCSC(=O)c1ccc(O)cc1; test: purified protein; format: biochemical, Porphyromonas gingivalis; settings: pH 7.5, 25 °C, 50 mM HEPES, 0.15 M KCl, 1 mM DTNB
[15] = substrate: CC(C)(COP(=O)(O)OP(=O)(O)OC[C@H]1O[C@@H](n2cnc3c(N)ncnc32)[C@H](O)[C@@H]1OP(=O)(O)O)[C@@H](O)C(=O)NCCC(=O)NCCSC(=O)c1ccccc1; test: purified protein; format: biochemical, Porphyromonas gingivalis; settings: pH 7.5, 25 °C, 50 mM HEPES, 0.15 M KCl, 1 mM DTNB
[16] = substrate: CC(C)(COP(=O)(O)OP(=O)(O)OC[C@H]1O[C@@H](n2cnc3c(N)ncnc32)[C@H](O)[C@@H]1OP(=O)(O)O)[C@@H](O)C(=O)NCCC(=O)NCCSC(=O)c1cc(O)c2ccccc2c1O; test: purified protein; format: biochemical, Porphyromonas gingivalis; settings: pH 7.5, 25 °C, 50 mM HEPES, 0.15 M KCl, 1 mM DTNB
[17] = substrate: CC(C)(COP(=O)(O)OP(=O)(O)OC[C@H]1O[C@@H](n2cnc3c(N)ncnc32)[C@H](O)[C@@H]1OP(=O)(O)O)[C@@H](O)C(=O)NCCC(=O)NCCSC(=O)Cc1cccc(O)c1; test: purified protein; format: biochemical, Phocaeicola vulgatus; settings: pH 7.5, 25 °C, 50 mM HEPES, 0.15 M KCl, 1 mM DTNB
[18] = substrate: CC(C)(COP(=O)(O)OP(=O)(O)OC[C@H]1O[C@@H](n2cnc3c(N)ncnc32)[C@H](O)[C@@H]1OP(=O)(O)O)[C@@H](O)C(=O)NCCC(=O)NCCSC(=O)c1ccc(O)cc1; test: purified protein; format: biochemical, Phocaeicola vulgatus; settings: pH 7.5, 25 °C, 50 mM HEPES, 0.15 M KCl, 1 mM DTNB
[19] = substrate: CC(C)(COP(=O)(O)OP(=O)(O)OC[C@H]1O[C@@H](n2cnc3c(N)ncnc32)[C@H](O)[C@@H]1OP(=O)(O)O)[C@@H](O)C(=O)NCCC(=O)NCCSC(=O)c1ccccc1; test: purified protein; format: biochemical, Phocaeicola vulgatus; settings: pH 7.5, 25 °C, 50 mM HEPES, 0.15 M KCl, 1 mM DTNB
[20] = substrate: CC(C)(COP(=O)(O)OP(=O)(O)OC[C@H]1O[C@@H](n2cnc3c(N)ncnc32)[C@H](O)[C@@H]1OP(=O)(O)O)[C@@H](O)C(=O)NCCC(=O)NCCSC(=O)c1cc(O)c2ccccc2c1O; test: purified protein; format: biochemical, Phocaeicola vulgatus; settings: pH 7.5, 25 °C, 50 mM HEPES, 0.15 M KCl, 1 mM DTNB

napthoyl-CoA gave a Km [1] of 170 µM, a Km [2] of 230 µM and a Km [3] of 180 µM.

B1: BF1314 (Bacteroides fragilis NCTC 9343) (protein)
chain: MKYKLLVLDVDGTLLNDEKEITPRTLATLLKVQQMGVHIVLASGRPTYGILPLAKKLELGNYGGYILSYNGAQVINAKNGEVLLERRINPEMLPYLEKKARKNGFAIFTYTEDRMIADQADNEHILQEAFLNRMELIEEPEFSVAVDFAPSKCMLVSDDEEALIGLEEHWKKRLNGALDVFRSEPYFLEVLPCGIDKSTSLGALLSHLDITPEEIIVIGDGVCDVSMIQFAGLGIAMGNAQDSVKVCADVVTASNEEDGVALAVEKAILSEIRPAEIPLDQLNERARHALMGNLGIQYTYASEDRVEATMPVDERTRQPFGILHGGATLALAETVAGLGSMILCQPDEIVVGMQVSGNHMSSAHEGDTVRAVGTIIHKGRSSHVWNVDVFTSTDKLVSSIRVVNSILKKR
With B1 the Km [4] was “(4.6 ± 0.4) × 10^1 μM”, the kcat [4] was 0.19 ± 0.01 s⁻¹ and the Km [5] was “(2.3 ± 0.2) × 10^2 μM”. The kcat [5] was 1.1 ± 0.1 s⁻¹, the Km [6] was 440 ± 30 µM and the kcat [6] was 0.0217 ± 0.00167 s⁻¹. For the same molecule, the kcat/Km [6] was 54 M⁻¹ s⁻¹, the Km [7] was “(8.4 ± 0.8) × 10^1 μM” and the kcat [7] was 0.024 ± 0.002 s⁻¹. It also gave a Km [8] of 7.0 ± 0.5 µM and a kcat [8] of 12 ± 1 s⁻¹.

B2: BF1314-HAD Domain (Bacteroides fragilis NCTC 9343) (protein)
chain: MKYKLLVLDVDGTLLNDEKEITPRTLATLLKVQQMGVHIVLASGRPTYGILPLAKKLELGNYGGYILSYNGAQVINAKNGEVLLERRINPEMLPYLEKKARKNGFAIFTYTEDRMIADQADNEHILQEAFLNRMELIEEPEFSVAVDFAPSKCMLVSDDEEALIGLEEHWKKRLNGALDVFRSEPYFLEVLPCGIDKSTSLGALLSHLDITPEEIIVIGDGVCDVSMIQFAGLGIAMGNAQDSVKVCADVVTASNEEDGVALAVEKAILSEIRPAEIPLDQLNERARHAL
Molecule B2 has a Km [9] of 970 ± 80 µM, a kcat [9] of 0.04167 ± 0.000333 s⁻¹ and a kcat/Km [9] of 42 M⁻¹ s⁻¹. It also gave a Km [10] of 7400 ± 500 µM, a kcat [10] of 0.383 ± 0.0167 s⁻¹ and a kcat/Km [10] of 51 M⁻¹ s⁻¹. The Km [11] was 63 ± 2 µM, the kcat [11] was 0.011 ± 0.001 s⁻¹ and the kcat/Km [11] was 170 M⁻¹ s⁻¹. It also gave a Km [12] of 870 ± 60 µM, a kcat [12] of 0.02 ± 0.00167 s⁻¹ and a kcat/Km [12] of 23 M⁻¹ s⁻¹.

B3: PG1653 (Porphyromonas gingivalis W83) (protein)
chain: MKYKIIVIDVFNTLLNNKYELTEENRNALLYIQKELGIRVVLTSGRTVAALKPLAEELNLREYSGYLIPYHGGQIVNCRSGKVIASHRMATSFVEVLDARARAEGVTLLAFGKDSIFSTDPHDPLAVKESDICGQPLVSKHPRSSEVIKCSFVGEAEKIAELEVVMRRDYGDKLNIFRSSETLLECLPSEVQKIKAISDLLDKLDLSREELVSVGDSYCDVEMIQLAGLGVAVANAREAVKACADYITTSNEENGVAHLVDKYIRHEYEAVPFSVEDVNSIVPGTLMESLGIRCTKIARGYVEATMPVDIRTRQPMGILHGGASLAFAETLAGFGSVALCNPGEIQVGLQVSGNHVSSALEGDVLRGEASIMHQGRSTHVWSINIYSTKSGKLICTCRVLNSILKQR
For B3, the Km [13] was “(1.7 ± 0.3) × 10^2 μM”, the kcat [13] was 0.31 ± 0.02 s⁻¹ and the Km [14] was “(8.0 ± 0.6) × 10^2 μM”. The kcat [14] was 4.6 ± 0.1 s⁻¹, the Km [15] was “(5.8 ± 0.5) × 10^1 μM” and the kcat [15] was 0.03 ± 0.001 s⁻¹. The Km [16] was 4.0 ± 0.3 µM and the kcat [16] was 10 ± 1 s⁻¹.

B4: BVU2420 (Phocaeicola vulgatus ATCC 8482) (protein)
chain: MMEETTCKPDYSNSMAEHLGIRFLPSTEDAVHAEMPVDHRTSQPFGMLNGGASLALAEIVAGHGSTSLCREDEYACGVQVSGNHLSAVPVGGKVFATGKLIHRGRSSHIWNIDITTPQGQLVSTVRVVNFILKKK
With B4 the Km [17] was “(8.1 ± 0.6) × 10^2 μM”, the kcat [17] was 0.034 ± 0.001 s⁻¹ and the Km [18] was “(3.3 ± 0.2) × 10^1 μM”. The kcat [18] was 1.2 ± 0.1 s⁻¹, the Km [19] was “(3.1 ± 0.4) × 10^1 μM” and the kcat [19] was 0.028 ± 0.001 s⁻¹. The Km [20] was “(1.5 ± 0.1) × 10^1 μM” and the kcat [20] was 13 ± 1 s⁻¹.
